The values below come from publication PMC7969030.

In data set [1] the target is T1, Kucore (Bacillus subtilis, UniProt O34859 1-253).
T1 sequence: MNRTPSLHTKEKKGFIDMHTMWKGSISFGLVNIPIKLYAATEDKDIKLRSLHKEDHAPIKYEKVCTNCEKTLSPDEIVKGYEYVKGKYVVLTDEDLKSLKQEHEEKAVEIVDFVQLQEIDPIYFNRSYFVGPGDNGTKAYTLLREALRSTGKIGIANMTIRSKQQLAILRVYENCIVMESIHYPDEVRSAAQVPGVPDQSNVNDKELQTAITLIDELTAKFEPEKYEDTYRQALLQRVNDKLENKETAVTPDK
Nature of the data set: SPR. (SPR reads the build-up and loss of mass on a sensor chip optically.)

The target of data set [2] is T2, Kuwt (Bacillus subtilis, UniProt O34859 1-311).
T2 sequence: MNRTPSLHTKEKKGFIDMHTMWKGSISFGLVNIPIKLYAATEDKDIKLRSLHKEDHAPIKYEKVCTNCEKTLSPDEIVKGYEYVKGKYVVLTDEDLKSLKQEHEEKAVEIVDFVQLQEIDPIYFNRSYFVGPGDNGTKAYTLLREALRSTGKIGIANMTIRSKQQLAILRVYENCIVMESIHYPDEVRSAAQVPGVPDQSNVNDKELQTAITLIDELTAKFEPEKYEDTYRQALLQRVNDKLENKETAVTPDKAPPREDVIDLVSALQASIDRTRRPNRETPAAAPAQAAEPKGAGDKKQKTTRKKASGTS
Nature of the data set: SPR.

In data set [3] the target is T1, Kucore. The data set can be described thus: EMSA. In general terms: In EMSA bound probe runs differently from free probe, usually more slowly.
Data set [4] addresses T2, Kuwt. Nature of the data set: EMSA.
The next data set has as its target T3, Kuwt;LigD (Bacillus subtilis;Bacillus subtilis, UniProt O34859;O34398 1-311;1-611, |).
T3 sequence 1: T2 sequence
T3 sequence 2: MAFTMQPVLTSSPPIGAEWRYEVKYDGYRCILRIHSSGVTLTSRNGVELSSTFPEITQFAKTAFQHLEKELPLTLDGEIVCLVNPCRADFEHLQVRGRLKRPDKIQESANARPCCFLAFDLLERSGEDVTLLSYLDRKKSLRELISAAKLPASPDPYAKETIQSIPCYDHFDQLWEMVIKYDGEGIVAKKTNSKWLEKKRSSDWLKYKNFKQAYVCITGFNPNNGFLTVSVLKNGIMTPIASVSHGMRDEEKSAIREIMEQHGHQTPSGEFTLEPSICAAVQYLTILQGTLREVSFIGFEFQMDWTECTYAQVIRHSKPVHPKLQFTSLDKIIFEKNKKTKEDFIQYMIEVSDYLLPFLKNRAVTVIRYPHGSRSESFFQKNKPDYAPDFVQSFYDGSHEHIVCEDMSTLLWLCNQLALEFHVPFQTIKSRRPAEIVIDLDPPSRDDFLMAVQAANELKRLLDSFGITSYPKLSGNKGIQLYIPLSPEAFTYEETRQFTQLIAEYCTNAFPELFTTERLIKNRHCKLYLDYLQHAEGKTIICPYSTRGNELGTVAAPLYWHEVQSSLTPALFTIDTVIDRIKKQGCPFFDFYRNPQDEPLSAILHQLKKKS
Nature of the data set: EMSA.

By Kd is commonly meant the concentration at which binding is half-saturated.

B1: 50 bp blunt DNA (SPR) (dsDNA)
DNA 1: CCTCTAGACCTGTACTACTCGAGAGATCGATCGACAGACGATGACTTAGC
DNA 2: GCTAAGTCATCGTCTGTCGATCGATCTCTCGAGTAGTACAGGTCTAGAGG
modifications: 5' biotin on one strand
Regarding B1, the Kd in the data set with Kucore [1] is 9.3 nM; with Kuwt [2] it was 6.7 nM.

B2: 50 bp DNA with 4 nt overhang (dsDNA)
DNA 1: B1 DNA 1
DNA 2: CTGAGCTAAGTCATCGTCTGTCGATCGATCTCTCGAGTAGTACAGGTCTAGAGG
modifications: 5' 6-FAM on one strand
As for B2, the binding result with Kucore [3] and with Kuwt [4] was “binds” each time.

B3: 50 bp blunt DNA (EMSA, photobleaching) (dsDNA)
DNA 1: B1 DNA 1
DNA 2: B1 DNA 2
modifications: 5' 6-FAM on one strand (EMSA)
On to B3, for which the binding result with Kuwt;LigD is “binds”.
